Experimental findings from paper PMC5356071 are described below.

This test addresses Zika virus envelope (E) glycoprotein, strain H/PF/2013 (French Polynesia), on mature infectious virions (Zika virus strain H/PF/2013, French Polynesia). In words: cryo-EM structure; mature ZIKV H/PF/2013 particles incubated with ZIKV-117 Fab at 4 °C for 2–3 h, flash-frozen on lacey carbon grids; icosahedral reconstruction at 6.2 Å; E dimer (PDB 5IRE) and Fab domains (ZV-67, PDB 5KVG) fitted; occupancies by EMfit.

B1: ZIKV-117 Fab (Fab fragment of the human monoclonal antibody ZIKV-117) (Fab, V domains shown)
VH: QVQLVESGGGVVRPGGSLRLSCAASGFTFKNYGIHWVRQAPGKGPEWVAFVRYDGNNKYYADSVKGRFTISRDNAKNTLSLQMNSLRVEDTAVYFCARDPETFGGFDYWGQGTLVTVSS
VL: ETVMTQSPATLSVSPGERGTLSCRASESVSSNLAWYQQKPGKAPRLLIYGASTRATGIPDRFSGSGSGTEFTLTISSLQSEDFAVYYCQQYYYSPRTFGQGTKVEVK
Molecule B1 came in with a Fabs bound per virion at saturation (Fabs per virion (180 sites)) of 60, a Fabs per virion at the 2f sites (Fabs per virion) of 21, a Fabs per virion at the 3f sites (Fabs per virion) of 35 and an occupancy at the 2f site (average Fab density relative to E protein density) of 35%. Further, the occupancy at the 3f site (average Fab density relative to E protein density) was 58%.
